Key:
[1] = target: human neurotensin receptor 1 (NTR1) prepared from CHO cells recombinantly expressing the human receptor (human) (UniProt P30989); assay: radioligand displacement, 125I-(Tyr3-neurotensin) on human NTR1 from CHO cells
[2] = target: NTR1 on HT29 or NTR1-expressing HEK293 cells (UniProt P30989); assay: cell-based or functional assay
NTR1 on HT29 or NTR1-expressing HEK293 cells, sequence (P30989 whole entry): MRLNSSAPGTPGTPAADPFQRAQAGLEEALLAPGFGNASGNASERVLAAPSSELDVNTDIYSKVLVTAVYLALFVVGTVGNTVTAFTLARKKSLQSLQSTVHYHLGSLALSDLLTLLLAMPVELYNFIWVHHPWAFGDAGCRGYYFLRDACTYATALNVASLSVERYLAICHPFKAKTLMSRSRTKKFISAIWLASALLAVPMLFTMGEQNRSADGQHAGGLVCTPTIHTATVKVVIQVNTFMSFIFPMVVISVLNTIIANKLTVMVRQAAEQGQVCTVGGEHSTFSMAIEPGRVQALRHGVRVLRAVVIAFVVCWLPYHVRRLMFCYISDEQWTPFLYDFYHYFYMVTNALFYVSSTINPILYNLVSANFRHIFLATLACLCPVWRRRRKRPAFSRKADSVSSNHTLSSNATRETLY

human neurotensin receptor 1 (NTR1) prepared from CHO cells recombinantly expressing the human receptor (human), sequence (P30989 whole entry): as above

Substance	IC50 [1] [nM]	Agonistic Effect EC50 [nM] (functional Ca2+ mobilisation assay) [2]	Antagonistic Effect IC50 [nM] (functional Ca2+ mobilisation assay) [2]
1206-Glutar-Ttds-Lys(DOTA)-Ttds-GABA-Asn-Ala-Val-Pro-Asn-Leu-Arg-Gly-Asp-Leu-Gln-Val-Leu-Ala-Gln-Lys (peptide)	10	> 50000	18
1206-Glutar-Ttds3-Asn-Ala-Val-Pro-Asn-Leu-Arg-Gly-Asp-Leu-Gln-Val-Leu-Ala-Gln-Lys-Val-Ala-Arg-Thr-GA (peptide)	9.9	> 50000	38
1206-Glutar-Ttds-Lys(1206-Glutar-Ttds)-Ttds-Asn-Ala-Val-Pro-Asn-Leu-Arg-Gly-Asp-Leu-Gln-Val-Leu-Ala- (peptide)	7.5	> 50000	12

Reference: patent publication EP2954934A1 (3B Pharmaceuticals GmbH, dated 2015)
